# Measured values: publication PMC6884138 (ACS synthetic biology, 2019)
# What was measured:
# [1] = target: the molecule itself; experiment: crystal structure
# [2] = target: the molecule itself; experiment: SEC
protein,measurement,setting,value
"BMC-H^2 (synthetic tandem-domain BMC shell protein), released from 6xHis-SUMO-BMC-H^2 by ULP protease (other, Haliangium ochraceum) MADALGMIEVRGFVGMVEAADAMVKAAKVELIGYEKTGGGYVTAVVRGDVAAVKAATEAGQRAAERVGEVVAVHVIPRPHVNVDAALPLGRTPGMDKSALDAPVVADAWEEDTESADALGMIEVRGFVGMVEAADAMVKAAKVELIGYEKTGGGYVTAVVRGDVAAVKAATEAGQRAAERVGEVVAVHVIPRPHVNVDAALPLGRTPGMDKSA",stoichiometry N,[1],90
same,stoichiometry N,[2],3
